According to the nanobody polyreactivity screen of Harvey et al. (2022):

Assay: yeast display, Sf9 membrane polyspecificity reagent, FACS + sequencing; frameworks hold sequencing errors
How it was run: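 After 36–48 hours of galactose induction, yeast (Saccharomyces cerevisiae BJ5465) displaying a synthetic nanobody library were stained at 4 °C for 1 hour with 10% biotinylated, detergent-solubilized Sf9 membrane reagent. Streptavidin microbeads enriched the stained cells before FACS sorting into low and high (top ~1%) gates on anti-HA and streptavidin fluorescence. Each clone's polyreactivity label reflects its gate of origin.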

Row | Sequence | polyreactivity (PSR sort gate)
1 | QVQLVESGGGLVQAGGSLRLSCAASGFSFTRYAMGWYRQAPGKERELVAAIYIGGSTYYADSVKGRFTISRDNAKNTVYFQMNSQKPEDTAVYYCAVDYRHSSSWNAGPWEMYYWGQGTKVTVSS | low polyreactivity
2 | QVQLVESGGGLVQAGGSLRLSCAASGFSFYRYAMGWYRQAPAKERELVARTYYADSVKGRFTISRDNAKNTVYLQMNSLKPEDTAVYYCNKDLELEYRYEYWGQGTQVTVSS | low polyreactivity
3 | QVQLVESGGGLVQAGGSLRLSCAASGFSFYSYTMGWYRQAPGSVRELVAAISRSGGRTSYADSVKGRFTNSRDNAKNTVYLQMNSLKPDDTAVYYRNAVRLLQTFAEYEYWGQGTQVTVSS | high polyreactivity
4 | QVQLVESGGGLVQAGGSLRLSCAASGFSLRNNAMGWYRPAPGKERELVAGITSGGRTNYADSVKGRFTISRDNAKNTVYLQMNSLKPEHTAVYYCAKRVWPRDQYGKRNPRMDYWGQGTLVTVSS | high polyreactivity
5 | QVQLVESGGGLVQAGGSLRLSCAASGFSYRYYAMGWYRQAPGKERELVAAISSRGGSTYYADSVKGRFTISRDNATNTVYLQMNSLKPEDTAVYYCAADHGDPGGYDYWGQGTQVTVSS | high polyreactivity
6 | QVQLVESGGGLVQAGGSLRLSCAASGFTCARYALGWYRQAPGQERELVASITWNGGRTYYAASVKGRFTISRDNAKNTVYLQMNSLKPEDTAVYYCAKDTRYTRYEYWGQGTQVTVSS | high polyreactivity
7 | QVQLVESGGGLVQAGGSLRLSCAASGFTCGYYAMGWYREAPGKEREFVATISYGTGSTYYADSVKGRFTISRDNAKNTVSFQMNSLKPEDTAVYYCNADTWPGEYNGYFSGAYDYWGQGTQVTVSS | high polyreactivity
8 | QVQLVESGGGLVQAGGSLRLSCAASGFTFAANTMGWYRQAPGKERELVADISGRGDRTSYADSVKGRFTISRDNAKNTVYLQMNSLKPEDTSVYYCAVDIYYYSNVHYYYWGQGTQVTVSS | low polyreactivity
9 | QVQLVESGGGLVQAGGSLRLSCAASGFTFADYAMGWYRQAPGKERELVAAINRSGGRTYYADSVKGRFTISRDNAKNTVYLQMNSLKPEDTAVYYCAAYGITYHNYDYWGQGTQVTVSS | high polyreactivity
10 | QVQLVESGGGLVQAGGSLRLSCAASGFTFAGNARGWDRQSPGKERELVAAITSGGSTYYADSVKGRFTMSRDKAKNTVYLQMNSLKPEDTAVYYCAALVFRGRSFTHDYWGQGTQVTVSS | high polyreactivity
11 | QVQLVESGGGLVQAGGSLRLSCAASGFTFAGYAMGWNRQAPGKERELVAASNRGGSTYYADSVKGRFTSSRDNAKHTVYLQRNSLKPEDTAVYYCAKAQRFYGGRMGYWGQGTQVTVSS | low polyreactivity
12 | QVQLVESGGGLVQAGGSLRLSCAASGFTFAGYAMGWYRQAPGKERELVAAISWRGGSTYYADSVKGRFTISRDNAKNTVYLQMNSLKPEDTAVYYCAAASRKRTSREPLDYWGQGTQVTVSS | high polyreactivity
13 | QVQLVESGGGLVQAGGSLRLSCAASGFTFAGYAMGWYRQAPGKERELVAGIRSSGARTNYADSVKGRFTISRDNAKNTVYLQMNSLKPEDTAVYYCNAVRTLYIWWPGYYYWGQGTQVTVSS | low polyreactivity
14 | QVQLVESGGGLVQAGGSLRLSCAASGFTFAGYAMGWYRQAPGKERELVAGIRSSGARTYYADTVKGRFTISRDNAKNTVYFQLKSLKPDDTAVYYCAKTDGFYGGYGYWGQGTQVTVSS | low polyreactivity
15 | QVQLVESGGGLVQAGGSLRLSCAASGFTFAHNAMGWYRQAPGKERELLAAISSRGGRTFYADSVKGRFTISRDNAKNTVYLQMNSLKPEDTAVYYCNRVRSVTPSPRYYYWGQGTQVTVSS | high polyreactivity
16 | QVQLVESGGGLVQAGGSLRLSCAASGFTFALNAMGWYRQAPGKERELVAAISFSGTRTYYADSVKGRFTISRDNAKNTVYLQMNSLKPEDTAVYYCAARVWVSDSYYPYYYWGQGTQVTVSS | high polyreactivity
17 | QVQLVESGGGLVQAGGSLRLSCAASGFTFALYTMGSYRQAPGKERELVAAIRSTGSTYADSVKGRFTISRDNAKNTVYLQMNSLKPEDTAVYYCAAQYWRRKKYYYWGQGTQVTVSS | high polyreactivity
18 | QVQLVESGGGLVQAGGSLRLSCAASGFTFARNAMGWYRQAPGKERELVAAINRSGGSTYYADSVKGRFTISRDNAKNTVYLQMNRLKPEDTAVYYCNKPRLAQQGYDYWGQGNQVTVSS | high polyreactivity
19 | QVQLVESGGGLVQAGGSLRLSCAASGFTFARNAMGWYRQAPGKERELVAVISRGGSTNYADSVKGRFTISRDNAKNTVSLQLHSLKPEDTAVYYCATRSSRRSYYLGEFNYWGQGTQVTVSS | high polyreactivity
20 | QVQLVESGGGLVQAGGSLRLSCAASGFTFARYAMGWYRQAPGKERELVAAITYSGGRTYYADSVKGRFTISRDNAKNTVYLQMNSLKPEDTAVYYCAARLSKRSGYYYWGQGTQVTVSS | high polyreactivity
21 | QVQLVESGGGLVQAGGSLRLSCAASGFTFARYAMGWYRQAPGKERELVASISGSGGSTYYADSVKGRFTISRDNAKNTVYLQMNSLKPEDTAVYYCAADTWYGFDWGQGTQVTVSS | high polyreactivity
22 | QVQLVESGGGLVQAGGSLRLSCAASGFTFARYTMGWYRQAPGKERELVAAISSRGSSTYYADSVKGRFTISRDNAKNTVFLQMNSLKPEDTAVYYCAASPYDTQTLDYDYWGQGTQVTVSS | high polyreactivity

Row | Sequence | polyreactivity (PSR sort gate)
23 | QVQLVESGGGLVQAGGSLRLSCAASGFTFATYTIGWYRPAPGKERELVAAISWSGGSTYYADSVKGRFTISRDNAKNTVYLQMNSLKPEDTAFYYCAAQRPSALRLYSSQRTIFGYWGQGTQVTVSS | high polyreactivity
24 | QVQLVESGGGLVQAGGSLRLSCAASGFTFAVSAMGWYRQAPGKERELVAAISRSGTRTYYADSVKGRFTISRDNAKNTVYLQMNSLKPEDTAVYYCAADKYRHGYDYWGQGTQVTVSS | low polyreactivity
25 | QVQLVESGGGLVQAGGSLRLSCAASGFTFAVYAMGWDSQAPGKERELVAAISRSGTRTYYADSVKGRFTSSRDNAKNTVSLQMNSLKPEDTAVYYCAADKYRHGYDYWGQGTQVTVSS | low polyreactivity
26 | QVQLVESGGGLVQAGGSLRLSCAASGFTFAVYAMGWYRQAPGKERELVAAISRSGTRTYYADSVKGRFTISRDNAKNTVYLQMNSLKPEDTAVYYCAADKYRHGYDYWGQGTQVTVSS | low polyreactivity
27 | QVQLVESGGGLVQAGGSLRLSCAASGFTFAVYVMGWYRPGRGKERELVAAISRSGGSTYYADSVKGRFTISRDNANNTDYLQMNSLNPEDTAVYYCAASPKRVLRESGDYCGQGTQVTVSS | high polyreactivity
28 | QVQLVESGGGLVQAGGSLRLSCAASGFTFAWNAKGWYRQAPGKERELVAAINRSGGSTKYADSVKGRFTISRDNAKNTVYLQMNSLKPEDTAVYFCNKYQLVRTYGSYSYYYWVQGTQVTVSS | high polyreactivity
29 | QVQLVESGGGLVQAGGSLRLSCAASGFTFAYNAMGWYRQAPGKERELVAAITVSGGRTYYADSVKGRFTISRDNAKNTVYLQMNSLKPEDTAVYYCAATVRVRTNSWMDYWGQGTQVTVSS | low polyreactivity
30 | QVQLVESGGGLVQAGGSLRLSCAASGFTFAYNAMGWYRQAPGKETELVAAINSGGGRTYYADSVKGRFTISRDNAKNTVYLQMNSLKPEATAVYYCNAYPYKLDYDYWGQGTQVTVSS | high polyreactivity
31 | QVQLVESGGGLVQAGGSLRLSCAASGFTFAYYAMGWYRQAPGKEREFVAAINKGGGSTNYADSVKGRFTISRDNAKNTVYLQMNSLKPEDTAVYYCNADYFVWYIGRVFSRYGYWGQGTQVTVSS | low polyreactivity
32 | QVQLVESGGGLVQAGGSLRLSCAASGFTFAYYAMGWYRQAPGKERELVAAISERGGSTYYADSVKGRFTISRDNAKNTVDLQMNSLKPEDTAVYYCARTFWDSPWYQSSYYSWGQGTQVTVSS | low polyreactivity
33 | QVQLVESGGGLVQAGGSLRLSCAASGFTFAYYAMGWYRQAPGKERELVAAITSRGGSTYYADSVKGRFTISRDNAKNTVYLQMNSLKPEDTAVYYCATKRVLTGYDSWGQGTQVTVSS | high polyreactivity
34 | QVQLVESGGGLVQAGGSLRLSCAASGFTFAYYTMGWYRQAPGKERELVAAINWSGGSTYYADSVKGRFTISRDYAKNTVYLQMNSLKPEDTAVYYCAAKSYWWATYDYWGQGTQVTVSS | high polyreactivity
35 | QVQLVESGGGLVQAGGSLRLSCAASGFTFAYYTMGWYRQAPGKERELVATISTSGGSTYYADSVKGRFTISRDNAKNTVYLQMNSLKPEDTAVYYCNRDLGRYYHWYDYWGQGTQVTVSS | low polyreactivity
36 | QVQLVESGGGLVQAGGSLRLSCAASGFTFAYYVMGWYRQAPGKERELVAAITRSGDITSYADSVKGRFTISRDNAKNTVYLQMNSLKPEDTAVYYCNARLGYQSRRYNYWGQGTQVTVSS | high polyreactivity
37 | QVQLVESGGGLVQAGGSLRLSCAASGFTFDDYAMGWYRQAPGKERELVAAIDDDSSTNYADSVKGRFTISRDNAKNTVYLQMNSLKPEDTAVYYCNARARVSGKWYNYWGQGTQVTVSS | high polyreactivity
38 | QVQLVESGGGLVQAGGSLRLSCAASGFTFDFNAMGWSRQAPGKERELVAAISSGASTNYADSVKGRFTISRDNAKNTVYLQMNSLKPEDTAVYYCAARSRTPGWYSTISRKMYWGQGTQVTVSS | high polyreactivity
39 | QVQLVESGGGLVQAGGSLRLSCAASGFTFDFYALGWYRQAPGKERELVAAISKNDGTTYYADSVKGRFTISRDNAKNTVYLQMNSLKPEDTAVYYCNAGNNVVVDYDYWGQGTQVTVSS | low polyreactivity
40 | QVQLVESGGGLVQAGGSLRLSCAASGFTFDFYAMGWNRQAPGKERELVAVISSSGRTYYADSVKGRFTISRDNAKNSVYLQMNSMKPEDTAVYYCDAKDKRGHTYDYWGQGTQVTVSS | high polyreactivity
41 | QVQLVESGGGLVQAGGSLRLSCAASGFTFDGYAIGWYRQAPGKERDLVAAISGAGGSTYYADSVKGRFTISRDNAKNTVYFQMNSLKPEDTAFYYCAAEWIADLSSPVWYDYWGQGTQVTVSS | high polyreactivity
42 | QVQLVESGGGLVQAGGSLRLSCAASGFTFDGYAMGSYRQAPGKERELVAAISDSGDSTYYADSVKGRFTISRDNAKNTVYLQMNSLKPEDTAVYYCAAPSVGYYDPTDFDYWGQGTQVTVSS | low polyreactivity
43 | QVQLVESGGGLVQAGGSLRLSCAASGFTFDGYAMGWYRQAPGKERELVAAIRRSGASTYYADSVKGRFTISRDNAKNTVYLHMNSLKPEDTAVYYCNATRNYEPRYSSFTLRGYYWGQGTQVTVSS | low polyreactivity
